Assay results reported in US20220112268A1.

Key:
[1] = target: T cell receptor of OT-I T cells (cognate to the SIINFEKL tetramer), on OT-I T cells; assay: labeled NP incubated with an OT-I/OT-II T cell mixture (1:1); reference free αPD-1 (FIG. 7B)
[2] = target: PD-1 on PD-1-positive cells (EL4 cells) (UniProt Q02242); assay: inhibition of PD-L1-human Fc (10 µg/mL) binding to EL4 cells, flow cytometry, competitor PD-L1-human Fc
[3] = target: PD-1 on PD-1-positive cells (EL4 cells) (UniProt Q02242); assay: direct binding of Alexa Fluor 647-labeled sample to EL4 cells, flow cytometry, fraction of positive cells
[4] = target: PD-1 on PD-1-positive cells (EL4 cells) (UniProt Q02242); assay: inhibition of PD-L1-human Fc binding to EL4 cells; reference intact αPD-1
[5] = target: PD-1 on PD-1-positive cells (EL4 cells) (UniProt Q02242); assay: direct binding to EL4 cells, flow cytometry; reference intact αPD-1
[6] = target: PD-1 on PD-1-positive cells (EL4 cells) (UniProt Q02242); assay: inhibition of PD-L1-human Fc binding to EL4 cells; reference soluble αPD-1-iTEP fusion

UniProt Q02242, sequence (Q02242 25-288 limits assumed): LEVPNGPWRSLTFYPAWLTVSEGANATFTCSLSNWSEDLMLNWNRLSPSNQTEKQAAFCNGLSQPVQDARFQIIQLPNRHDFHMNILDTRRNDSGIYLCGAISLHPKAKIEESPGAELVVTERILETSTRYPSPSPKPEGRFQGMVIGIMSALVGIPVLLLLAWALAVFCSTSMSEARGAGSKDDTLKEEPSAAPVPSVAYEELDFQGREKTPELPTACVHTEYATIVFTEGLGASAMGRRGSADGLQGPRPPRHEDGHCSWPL

Row | targeting efficiency (OT-I:OT-II ratio of guided NPs divided by the OT-I:OT-II ratio of free αPD-1) [1] | EC50 [2] | EC50 [3] | fold lower inhibition capacity than intact αPD-1 [4] | fold smaller EC50 than intact αPD-1 [5] | fold stronger avidity than intact αPD-1 [5] | fold higher inhibition capacity than the soluble αPD-1-iTEP fusion [6] | Substance
1 | 37.3 |  |  |  |  |  |  | SIINFEKL tetramer-guided αPD-1 NP, nanoparticle assembled from iTEP-αPD-1 and iTEP-tetramer (H2-Kb/SIINFEKL) mixed at a 1-to-10 ratio (from UniProt P22629 37-163; P01901 22-305)
2 |  | 4590 nM | 400 nM | 3 fold |  |  |  | soluble αPD-1-iTEP fusion, αPD-1(scFv) fused to the amphiphilic diblock iTEP (GAGVPG)70-(GVLPGVG)56-(GC)4
3 |  | 1190 nM | 39 nM |  | 3 fold | 4 fold | 3 fold | αPD-1 NP, the nanoparticle form of the αPD-1-iTEP fusion, self-assembled and crosslinked by disulfide bonds

Second part, the substance before the results:

Row | Substance | targeting efficiency (OT-I:OT-II ratio of guided NPs divided by the OT-I:OT-II ratio of free αPD-1) [1] | EC50 [2] | EC50 [3] | fold lower inhibition capacity than intact αPD-1 [4] | fold smaller EC50 than intact αPD-1 [5] | fold stronger avidity than intact αPD-1 [5] | fold higher inhibition capacity than the soluble αPD-1-iTEP fusion [6]
4 | intact αPD-1 (anti-programmed death-1 antibody, RMP1-14 clone, IgG from hybridoma ascites) |  | 1320 nM | 110 nM |  |  |  | 
5 | αPD-1 scFv (recombinant single-chain variable fragment of the anti-PD-1 antibody clone RMP1-14), NH2-Histag(H6)-(GGGSG)3-VH-(GGGSG)4-VL-COOH |  | 4160 nM | 320 nM | 3 fold |  |  | 
